Results reported in patent US20150111836A1, “CELLULAR APOBEC3 PROTEINS AND MODULATORS THEREOF FOR REGULATING DNA REPAIR PROCESSES AND TREATING PROLIFERATIVE DISEASES” (priority 2012, published 2015).

Assays:
[1] = target: purified recombinant A3G-His6 (human APOBEC3G with C-terminal Myc-His6 tag, expressed in 293T cells) (human) (UniProt Q9HC16); experiment: cell-based or functional assay
[2] = target: virion-associated A3G (endogenous A3G of H9 cells packaged in HIV-1 particles) (human) (UniProt Q9HC16); experiment: cell-based or functional assay

Sequence of purified recombinant A3G-His6 (human APOBEC3G with C-terminal Myc-His6 tag, expressed in 293T cells) (human) (Q9HC16 whole entry): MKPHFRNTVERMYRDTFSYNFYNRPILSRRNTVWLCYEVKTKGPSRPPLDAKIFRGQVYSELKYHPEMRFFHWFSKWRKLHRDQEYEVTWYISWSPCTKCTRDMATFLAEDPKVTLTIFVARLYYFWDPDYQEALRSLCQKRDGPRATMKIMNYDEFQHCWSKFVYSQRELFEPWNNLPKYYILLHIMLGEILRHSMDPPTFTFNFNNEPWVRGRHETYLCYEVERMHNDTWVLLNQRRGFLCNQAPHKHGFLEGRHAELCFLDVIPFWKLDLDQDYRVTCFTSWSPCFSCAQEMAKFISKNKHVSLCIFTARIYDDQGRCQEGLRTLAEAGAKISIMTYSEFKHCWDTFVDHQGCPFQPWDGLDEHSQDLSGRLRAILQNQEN

Substance	inhibition of A3G deaminase activity [1]	also measured
BSA (from UniProt P02769 25-607)		A3G deaminase activity [1]: 10 µM
Vif9-23 peptide	1 µM	
Vif37-51 peptide	1 µM	
Vif101-115 peptide	1 µM	
Vif113-127 peptide	1 µM	
Vif molecules associated with HIV-1 particles (wt HIV-1 HXB2 virions) (from UniProt P05900 1-192)		specific activity of virion-associated A3G deaminase (wt vs Δvif particles, normalized to A3G protein content) [2]: 36.5%
